# Data published in the DeepSol protein solubility set.
# Test: soluble on expression in E. coli; label from the status in PepcDB or PDB records
row,Sequence,soluble on expression in E. coli
1,MGSDKIHHHHHHMRIVLGVSSGIAIYKAVDLASKLRKEGHELHVVMTPDATRMISPVVFSAVGNCSVYHDWMDVRNGWIPHTEISRTADVLVVAPATANTISKIANGIADNLLTLVALAFDKDAKILVPTMNYRMYSNKLFQENLEKLKNNGWFVVEPEEGHLACGEVGKGRYPENEKIVEAVHLLTFPKKLAGKKVLITAGPTRERIDAVRFITNASSGKMGYALATVAKRMGARVSLVSGPTSLKPPYYVDEFVKVESAEEMYEEVMKRFEDTDIVIMNAAVGDYRPKKVFEGKLKKTENDLVLHLERTKDILKELGQRKSNQILVGFAAEVENFEENAVKKLREKNLDLLVLNDARKAFSSDRVEVYIYGRDGFIKRIDEDDKIRVACGILDVVSNLAGGSPS,not soluble
2,MMKKDYRTQVIEDLKKQDKAKKVLRDEQLLEELIQLEAYQKAHVIATYLAFPFEFDTSLLIEQAQRDNKSIVVPKTYPQGKMIFVVYDEADLQITKFGLKEPRSEEALEKSAIDLIHVPGLAFNNEGYRIGFGAGYYDQYLADFQGDTVSTIYSFQKFTFEPSFFDIPVKEVLVSGDLLEHHHHHH,soluble
3,MAAKKRGLGRGLDALLGGSSPAKLQEEAVQADRRELQQIPLDLMQRGKYQPRRDMDPQALEELAQSIKAQGVMQPIVVRPIANGRYEIIAGERRWRASQQAGLEKIPALVRDVPDEAAIAMALIENIQREDLNPIEEAAALQRLQQEFQLTQQQVAEAVGKSRATITNLLRLIGLPEEIKTLLSHGDLEMGHARALLGLPAERQVEGARHVVAHGLTVRQTEALVRQWTHAPGKPAGPVKSDPDIARLEQRLAERLGASVQIRHGQKGKGQLVIRYSSLDELQGVLAHIR,not soluble
4,MGSDKIHHHHHHMKLAKKYYAVRKGRVPGIYKTWKEAEEQVKGFPGAEYKSFERLEDAKAYMEGKNECICPELDTETMIAYVDGSYDEVCGSGIVLCYRGKKEEYYFWTNIEEFKDSRNITGEIMAALFAMDYALKKGARKLVLRYDLEGLEKWATEEYRTNKLVTKVYRHYYRKFCQMGLKVVFEKIKSHSGNFCNDEADSLAKKASKKESNVEWMPEDFESIIRTLTKKGGCL,not soluble
5,MTGKSVREVPMTEEILAESIALRLRRDILRGKLVPGTSIKERDNAAEMGVSRTPMREAIRILANEGLVQLRPSRSPIVTQLSLNEVVSFIEVLSALEMLAVTLACERATKIDIAHVRGAERKLATQYDRIDQVERFELDMDFHIALTRASHNQALSDTHMSYLRRLWYARFQSARNRHTKDRVLQQHAALVDAIERRDPTMAQTELSSHLENLRINVHAYFERAEREQLQLKNSA,not soluble
6,MGSDKIHHHHHHMADFSNQIVTIKKGLDLPIAGEPRQVIELGAKPSQVAVLGEEFVGLKPTMLVEEGDWVQKGQALFEDKKTPGVLFTAPASGQVVAINRGERRILQSVVIRCDDGENRDGQISFEIHQDIAALARSTVQAQLVKSGLWTALRTRPFSRVPALDSTPAGIFVTAIDTNPLAADPRLIIAEQTEAFKAGLLVLSRLTEGKVYLCQDKGEAIVKEALPQLEVRRFDGVHPAGLVGTHIHFTLPVSLERQVWHIGYQDVIAYGKLFQTGELYTDRIVALGGPSVLNPRLLRTQLGAELSPLVSDDIKPGQNRVVSGSVLSGHTAVGVHDFLGRFHNQVSVLSEDAQHHVLSWVRGGSDKFSITRAVTSRLFGATKLFEFTTHQGGSARAMMAFGQLDRVMPLDILPTLLVRDLVVRDTDEAQALGALELDEEDLALCTFVCPGKYDFGKELRACLDVIEREG,not soluble
7,MGSDKIHHHHHHMAYEQFAYVYDELMQDVPYPEWVAWVLEQVEPGKRIADIGCGTGTATLLLADHYEVTGVDLSEEMLEIAQEKAMETNRHVDFWVQDMRELELPEPVDAITILCDSLNYLQTEADVKQTFDSAARLLTDGGKLLFDVHSPYKMETLFNGKTYATHAEQSSYIWFADPGEEPLSVVHELTFFIEGEDGRYDRVDETHHQRTYPPEQYITWLREAGFRVCAVTGDFKSDAPTETAERIFFVAEKI,not soluble
8,MGSDKIHHHHHHMLVASLVLLGLYDLFQAKHSILRNFPVIGHMRYLLEMIGPELHQYFVESDTDGKPINKNHRNYIYERAKEQNQTRPFGTQLNVYDDNYKWMQHSIYPAKKMDTPPRVVIGGKDCQQPYSASLFNISAMSFGALSKNAIQALNLGAKAGEFFHDTGEGGISEYHLQGGDLVWEIGTGYFGCRTGNGCFDAEKFKQKANWE,not soluble
9,MGSDKIHHHHHHMKVLVVDDDKLARKGLISIMDWKKYGFEVVGDVQNGRKALEFLKDNEVDIVFTDIDMPEIDGIELMKMCKKEYPEVKFVVFSMYEDFRYAQSALRLGALDYISKISFEGDECDRILELVERKYKENHSQKETRNEDSELIKRLEKAWMNTRWIFNDSEFNRLYELTRGVELRTAERVFIKSFHSLQKLTGEELEFPSLSSVDSMLEWVKQWKENLYQTCLQTDKTKDIYMFARVILYTDEHIEENLKSEEAAAQIGMSRSYFSTRFKEMTGDTFHNYVISRKMYAAAQKMAKGTENITQIASNLGYDNFYYFTKVFSKEYGCMPTEYVGRIKKCSI,not soluble
10,MGSDKIHHHHHHMNFETVIGLEVHVELKTESKIFSASPNHFGAEPNANTSVIDLGYPGVLPVLNKAAVEFAMKAAMALNCEVATDTKFDRKNYFYPDNPKAYQISQFDKPIGENGWIEIEVDGTKKKIGITRLHLEEDAGKLTHSGNGYSLVDFNRQGTPLIEIVSEPDIRTPQEAYAYLEKLKSIIQYTGVSDCKMEEGSLRCDANISLRPVGQEEFGTKTELKNLNSFNFVRKGLEYEEKRQAQVLLSGGEILQETRRYDEAANKTVLMRVKEGSDDYRYFPEPDLVALHIDDEWKARIRSEIPELPDARKKRYVEELGLPAYDAMVLTLTKEMSDFFEETIAKGADPKLASNWLMGEVSGYLNAEQKELDEVALTPDGLAKMIQLIEKGTISSKIAKKVFKDLIEKGGDPEEIVKAKGLVQISDEGELRKYVVEVLDNNQQSIDDFKNGKDRAIGFLVGQIMKATKGKANPPMVNKLLLEEINKR,not soluble
11,MAEKFDCHYCRDPLQGKKYVQKDGHHCCLKCFDKFCANTCVECRKPIGADSKEVHYKNRFWHDTCFRCAKCLHPLANETFVAKDNKILCNKCTTREDSPKCKGCFKAIVAGDQNVEYKGTVWHKDCFTCSNCKQVIGTGSFFPKGEDFYCVTCHETKFAEHCVKCNKAITSGGITYQDQPWHADCFVCVTCSKKLAGQRFTAVEDQYYCVDCYKNFVAKKCAGCKNPITGFGKGSSVVAYEGQSWHDYCFHCKKCSVNLANKRFVFHQEQVYCPDCAKKL,soluble
12,MTVPSIVLNDGNSIPQLGYGVYKVPPADTQRAVEEALEVGYRHIDTAAIYGNEEGVGAAIAASGIARDDLFITTKLWNDRHDGDEPAAAIAESLAKLALDQVDLYLVHWPTPAADNYVHAWEKMIELRAAGLTRSIGVSNHLVPHLERIVAATGVVPAVNQIELHPAYQQREITDWAAAHDVKIESWGPLGQGKYDLFGAEPVTAAAAAHGKTPAQAVLRWHLQKGFVVFPGSVRREHLEENLDVFDFDLTDTEIAAIDAMDPGDGSGRVSGHPDEVD,soluble
13,MGSDKIHHHHHHMPFDQGGIKMKPLLQTVDLKKYFPQGKRILKAVDGISIEIKEGETLGLVGESGCGKSTLGRTILKLLRPDGGKIFFEGKDITNLNDKEMKPYRKKMQIIFQDPLGSLNPQMTVGRIIEDPLIIHKIGTKKERRKRVEELLDMVGIGREFINSFPHEFSGGQQQRIGIARALALNPKFIVCDEPVSALDVSIQAQIIDLLEEIQQKMGISYLFIAHNLAVVEHISHKVAVMYLGKIVEYGDVDKIFLNPIHPYTRALLKSVPKIPWDGQKQRFYSLKGELPSPIDLPKGCRFQTRCTEKKAICFEKEPELTEVEKNHFVSCHLVRSYRG,not soluble
14,MGQTLSEPVTKKESASCANENYLVGSSCMQGWRVDMEDAHTHLLSLPDDPKCAFFAVYDGHGGSKVSQYSGINLHKKVVAQKEFSEGNMKEAIEKGFLELDQQMRVDEETKDDVSGTTAVVVLIKEGDVYCGNAGDSRAVSSVVGEARPLSFDHKPSHETEARRIIAAGGWVEFNRVNGNLALSRALGDFAFKNCDTKPAEEQIVTAFPDVITDKLTPDHEFIVLACDGIWDVMTNQEVVDFVREKLAEKRDPQSICEELLTRCLAPDCQMGGLGCDNMTVVLVGLLHGQSPDTLFTKCARPAVFTGVNNEDGDQNQIQQDISRVINNFDGEQRVNAANQEEEEDDNEPAPANFQV,soluble
15,GMSDTVLTGLLDTVWQQFGRGTKDRHHPARHPTLATIGTDGPDLRTLVLRAASHAEATLEFHTDAASPKVAHIRRDARVAIHIWIPKASLQVRAKAIAKILPGDPNLFAQLPEAARMNYQGPVPGTPLPAEPDATPNRFTRLICHLSEIDVLHLTTPHQRAVYTAPDWRGIWVSP,soluble
16,GNIATTPGDVVYRNRMMELIQYKPATDTVHEIPIVLFPPWINKFYILDLKAQNSFIKWVTEQGFTIFVVSWINPDASYADVGMEDYIQDGFLTAIDEVKKICKVKQVNAVGYCIAGTTLSLTLSLMKQTGDKSVKSATFFTALTDFSDQGEFTPFLQDDFIDGIEEEVTREGVLRSWIMARTFSYLRSNDLIYKPAIQSYMLGETPPAFDLLYWNGDGANLPAKMAVQYLRGLCQRNEFAGEGFDLMGHTLHVRDVDVPVMAITCETDHIAAWKDCYRGVQKMGSRSKTFVVSESGHIAGIVNPPSKKKYGHYTNPDLKDD,not soluble
17,MAHHHHHHMSDAAPGPAPAPVTAAVDAPPLPAPTKVKPPRKKPPRAEEANPRLLAPANGVAAQQQKQRDKEFATHKAHILTNLQTNACDLSPKGSLDAKCLPVMGVLNTHKDYVTTSSCSGRIALFHSIKHSEACGADDGTATPKPRMKRGENAALGWVFVKHGMLRPMEMAQVVGFLCGAPTTPEDVALDSAQMEKHAAHMASVSCSAHCHSAAPGSLLAEMYDGEVEGALVGARVSGDEVAALPVPTRGTVSLKMEPFVMHVQCRTMEAAKLLLSAVVSDSGFRNSGVVPPGKKIMCGIRSAAGLGLEVPVVVDGVNHVASQRAYVWALLGLANEKMEANEKKIKLLERSVAARVLPA,soluble
18,MGSDKIHHHHHHMNHPSVFHPGPAAISPQQRLLLMHEGEWEDFIEECVRQLQKEGNYVEVVALGGSGDKGRDVCGYSKEYPAAGTWDLYQAKHYDSPLTPSEFFPELAKFVTCVWREDYTRPAKYFICASRDVGTTLFDLLKNPVRLKERLLDDWRKKGGKFGKFKQPLDADLEKFIEVFPFDVVKRLPPMELLSIHERDTASYWARFGVLAPRENDPEVPPKPVSSESTYVTALLRVYAEHAQVKIDDVPDIPPAHGAHFKAQRRLFYSAEGLHRFSRDKLPGAFEALLDEVENGIGAELTFPHESGFVRLHSVLKTANVLQIMNNPLRARLRSGDLQGSCHHLANQGRAQWVESDEADGESV,not soluble
19,MSLGLPKMEVFQEYYGLPPPPGAIGPFLRLNPGDIVELTKAEAEQNWWEGRNTSTNEIGWFPCNRVKPYVHGPPQDLSVHLWYAGPMERAGAESILANRSDGTFLVRQRVKDAAEFAISIKYNVEVKHIKIMTAEGLYRITEKKAFRGLTELVEFYQQNSLKDCFKSLDTTLQFPFKEPEKRTISRPAVGSTKYFGTAKARYDFCARDRSELSLKEGDIIKILNKKGQQGWWRGEIYGRVGWFPANYVEEDYSEEGHHHHHH,soluble
20,MAHHHHHHMGTLEAQTQGPGSMSGDRDDPRYPYPKDDAELRRRLTPMQYEVTQHAATEPPFTGEYTDTEDAGIYHCVVCGTALFESGAKYHSGCGWPSYFKPIDGEVIDEKMDYTHGMTRVEVRCNQCGAHLGHVFEDGPRDKTGLRYCINSAALNFEAKPERK,soluble
